Results taken from article PMC8568920 (2021).

Target: biotinylated lysocin E derivative, natural type (biotin (position not given); fatty acid chain moiety)
Assay: BLI

B1: recombinant human apolipoprotein A-I ∆NM variant (domain or fragment)
chain: PVTQEFWDNLEKETEGLRQEMSKDLEEVKAKVQPYLDDFQKKWQEEMELYRQKVEPLRAELQEGARQKLHELQEKLSPLGTHLAPYSDELRQRLAARLEALKENGGARLAEYHAKATEHLSTLSEKAKPALEDLRQGLLPVLESFKVSFLSALEEYTKKLNTQ
B1 gave a Kd of 5.6 µM.
